# IntAct's records for PubMed 18606998
# B1: Transient receptor potential cation channel subfamily V member 5 (Oryctolagus cuniculus (Rabbit)), Q9XSM3 (parent)
# chain: MGACPPKAKGPWAQLQKLLISWPVGEQDWEQYRDRVNMLQQERIRDSPLLQAAKENDLRLLKILLLNQSCDFQQRGAVGETALHVAALYDNLEAATLLMEAAPELAKEPALCEPFVGQTALHIAVMNQNLNLVRALLARGASVSARATGAAFRRSPHNLIYYGEHPLSFAACVGSEEIVRLLIEHGADIRAQDSLGNTVLHILILQPNKTFACQMYNLLLSYDEHSDHLQSLELVPNHQGLTPFKLAGVEGNTVMFQHLMQKRKHVQWTCGPLTSTLYDLTEIDSWGEELSFLELVVSSKKREARQILEQTPVKELVSFKWKKYGRPYFCVLASLYILYMICFTTCCIYRPLKLRDDNRTDPRDITILQQKLLQEAYVTHQDNIRLVGELVTVTGAVIILLLEIPDIFRVGASRYFGQTILGGPFHVIIITYASLVLLTMVMRLTNMNGEVVPLSFALVLGWCSVMYFARGFQMLGPFTIMIQKMIFGDLMRFCWLMAVVILGFASAFHITFQTEDPNNLGEFSDYPTALFSTFELFLTIIDGPANYSVDLPFMYCITYAAFAIIATLLMLNLFIAMMGDTHWRVAQERDELWRAQVVATTVMLERKMPRFLWPRSGICGYEYGLGDRWFLRVENHHDQNPLRVLRYVEAFKCSDKEDGQEQLSEKRPSTVESGMLSRASVAFQTPSLSRTTSQSSNSHRGWEILRRNTLGHLNLGLDLGEGDGEEVYHF
# Variants of: B1
# Conditions: with leg1_human LGALS1, P09382
# Sequence of leg1_human LGALS1, P09382 (P09382 whole entry): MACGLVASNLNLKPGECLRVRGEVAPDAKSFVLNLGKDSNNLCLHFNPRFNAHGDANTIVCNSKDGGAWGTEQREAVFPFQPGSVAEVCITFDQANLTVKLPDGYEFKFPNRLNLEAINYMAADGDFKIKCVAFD
row,Variant,effect of a mutation on the interaction
1,N358Q,disrupting interaction
